Experimental data from the supplement of paper PMC9112550, “Optimization of the antimicrobial peptide Bac7 by deep mutational scanning” (BMC Biology, 2022).

test system: Escherichia coli TOP10; test: shrunken log2 fold change of peptide-encoding DNA abundance (4.5 h post-induction vs induction); higher = less antimicrobial activity (less host growth inhibition); details: time post-induction: 4.5 h; library: site-saturation at positions 5, 18, 19, 20
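Further: peptides expressed intracellularly from a pBAD plasmid library in pooled LB shake-flask culture, induced with 0.3% L-arabinose, DNA abundance read by NGS, three biological replicates, DESeq2 with apeglm shrinkage.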

Sequence	shrunken log2 fold change
RRIRIRPPRLPRPRPRPMFMPRP	-0.383
RRIRDRPPRLPRPRPRPDMSPRP	-0.0165
RRIRCRPPRLPRPRPRPPASPRP	0.723
RRIRWRPPRLPRPRPRPACVPRP	0.347
RRIRPRPPRLPRPRPRPWCRPRP	0.0933
RRIRNRPPRLPRPRPRPVWMPRP	-0.0917
RRIRCRPPRLPRPRPRPYYTPRP	0.00417
RRIRDRPPRLPRPRPRPSVIPRP	0.0683
RRIRKRPPRLPRPRPRPVNKPRP	0.22
RRIRIRPPRLPRPRPRPRKFPRP	-0.000367
RRIRKRPPRLPRPRPRPALWPRP	0.27
RRIRDRPPRLPRPRPRPMNEPRP	0.202
RRIRFRPPRLPRPRPRPVKDPRP	-0.254
RRIRHRPPRLPRPRPRPSPPPRP	-0.0717
RRIRWRPPRLPRPRPRPIDVPRP	-0.298
RRIRRRPPRLPRPRPRPPNRPRP	0.4
RRIRPRPPRLPRPRPRPYWNPRP	-0.151
RRIRVRPPRLPRPRPRPPNVPRP	-0.0619
RRIRGRPPRLPRPRPRPHWNPRP	-0.017
RRIRNRPPRLPRPRPRPGLPPRP	0.028
RRIRPRPPRLPRPRPRPRDHPRP	0.279
RRIRIRPPRLPRPRPRPNSKPRP	-0.899
RRIRQRPPRLPRPRPRPHLEPRP	-0.15
RRIRRRPPRLPRPRPRPFDYPRP	-0.0528
RRIRNRPPRLPRPRPRPIEFPRP	-0.235

Sequence	shrunken log2 fold change
RRIRHRPPRLPRPRPRPFSWPRP	-0.0533
RRIRRRPPRLPRPRPRPKKSPRP	0.237
RRIRCRPPRLPRPRPRPVVLPRP	-0.0778
RRIRCRPPRLPRPRPRPAYCPRP	-0.363
RRIRFRPPRLPRPRPRPGTVPRP	0.0642
RRIRCRPPRLPRPRPRPVEWPRP	0.000166
RRIRTRPPRLPRPRPRPRFRPRP	0.158
RRIRRRPPRLPRPRPRPVKCPRP	0.23
RRIRKRPPRLPRPRPRPNENPRP	0.304
RRIRQRPPRLPRPRPRPKHIPRP	-0.456
RRIRARPPRLPRPRPRPLGLPRP	0.353
RRIRQRPPRLPRPRPRPGNMPRP	-0.0822
RRIRCRPPRLPRPRPRPTYVPRP	-0.259
RRIRPRPPRLPRPRPRPLCLPRP	-0.294
RRIRERPPRLPRPRPRPQGMPRP	-0.284
RRIRFRPPRLPRPRPRPNPTPRP	0.0233
RRIRARPPRLPRPRPRPVSIPRP	0.119
RRIRHRPPRLPRPRPRPMKSPRP	-0.00231
RRIRARPPRLPRPRPRPRLSPRP	0.358
RRIRERPPRLPRPRPRPMLDPRP	0.0349
RRIRFRPPRLPRPRPRPQVQPRP	-0.0485
RRIRFRPPRLPRPRPRPTCKPRP	-0.295
RRIRYRPPRLPRPRPRPINPPRP	-0.269
RRIRNRPPRLPRPRPRPVPEPRP	0.61
RRIRSRPPRLPRPRPRPYIYPRP	-0.778

Sequence	shrunken log2 fold change
RRIRKRPPRLPRPRPRPFRCPRP	-0.142
RRIRVRPPRLPRPRPRPDKRPRP	0.0226
RRIRQRPPRLPRPRPRPGHVPRP	0.0119
RRIRSRPPRLPRPRPRPAFIPRP	-0.0885
RRIRSRPPRLPRPRPRPFQWPRP	0.319
RRIRARPPRLPRPRPRPNTSPRP	-0.0188
RRIRPRPPRLPRPRPRPHLPPRP	-0.126
RRIRDRPPRLPRPRPRPLEWPRP	0.421
RRIRTRPPRLPRPRPRPPYSPRP	-0.135
RRIRERPPRLPRPRPRPYAAPRP	-0.368
RRIRFRPPRLPRPRPRPKKEPRP	0.0316
RRIRTRPPRLPRPRPRPGFLPRP	0.122
RRIRWRPPRLPRPRPRPMKQPRP	-0.208
RRIRPRPPRLPRPRPRPEAMPRP	0.0142
RRIRIRPPRLPRPRPRPPDRPRP	0.109
RRIRWRPPRLPRPRPRPLQKPRP	1.73
RRIRKRPPRLPRPRPRPYNKPRP	-0.626
RRIRHRPPRLPRPRPRPTTSPRP	-0.146
RRIRIRPPRLPRPRPRPANIPRP	-0.383
RRIRWRPPRLPRPRPRPARMPRP	0.362
RRIRNRPPRLPRPRPRPADKPRP	0.0545
RRIRMRPPRLPRPRPRPEEEPRP	0.0412
RRIRKRPPRLPRPRPRPKVQPRP	0.092
RRIRQRPPRLPRPRPRPNMWPRP	-0.419
RRIRSRPPRLPRPRPRPVDIPRP	0.147

Sequence	shrunken log2 fold change
RRIRKRPPRLPRPRPRPEEAPRP	3.85
RRIRMRPPRLPRPRPRPRFKPRP	0.498
RRIRGRPPRLPRPRPRPWEHPRP	-0.000921
RRIRWRPPRLPRPRPRPTILPRP	0.0395
RRIRWRPPRLPRPRPRPEWLPRP	0.803
RRIRTRPPRLPRPRPRPLEIPRP	0.554
RRIRWRPPRLPRPRPRPTMCPRP	-0.00672
RRIRKRPPRLPRPRPRPWCTPRP	-0.0115
RRIRIRPPRLPRPRPRPHPKPRP	-0.258
RRIRKRPPRLPRPRPRPNNKPRP	-0.162
RRIRCRPPRLPRPRPRPRILPRP	-0.567
RRIRARPPRLPRPRPRPWCKPRP	0.102
RRIRVRPPRLPRPRPRPYQQPRP	-0.323
RRIRWRPPRLPRPRPRPNNRPRP	-0.559
RRIRTRPPRLPRPRPRPPANPRP	0.0303
RRIRTRPPRLPRPRPRPDGHPRP	-0.102
RRIRHRPPRLPRPRPRPIYMPRP	-0.0111
RRIRLRPPRLPRPRPRPNSAPRP	0.0654
RRIRIRPPRLPRPRPRPMVHPRP	-0.0468
RRIRSRPPRLPRPRPRPDEVPRP	0.0037
RRIRKRPPRLPRPRPRPHDFPRP	-0.0488
RRIRGRPPRLPRPRPRPWICPRP	-0.00439
RRIRSRPPRLPRPRPRPCRVPRP	0.11
RRIRARPPRLPRPRPRPADCPRP	0.203
RRIRYRPPRLPRPRPRPSLFPRP	-0.657

Sequence	shrunken log2 fold change
RRIRLRPPRLPRPRPRPVKSPRP	-0.075
RRIRIRPPRLPRPRPRPRQIPRP	-0.212
RRIRYRPPRLPRPRPRPDPLPRP	-0.0227
RRIRDRPPRLPRPRPRPIYLPRP	2.37
RRIRLRPPRLPRPRPRPTVEPRP	0.114
RRIRDRPPRLPRPRPRPPPPPRP	0.899
RRIRCRPPRLPRPRPRPCTDPRP	0.0806
RRIRGRPPRLPRPRPRPYKNPRP	-0.22
RRIRKRPPRLPRPRPRPSFPPRP	-0.0425
RRIRNRPPRLPRPRPRPSWMPRP	-0.487
RRIRERPPRLPRPRPRPSQNPRP	-0.267
RRIRYRPPRLPRPRPRPQLLPRP	-0.42
RRIRFRPPRLPRPRPRPEGHPRP	0.0933
RRIRIRPPRLPRPRPRPCPDPRP	-0.127
RRIRCRPPRLPRPRPRPECCPRP	0.401
RRIRFRPPRLPRPRPRPWTHPRP	-0.0346
RRIRLRPPRLPRPRPRPRQAPRP	-0.00965
RRIRHRPPRLPRPRPRPPHWPRP	0.375
RRIRTRPPRLPRPRPRPPQNPRP	0.329
RRIRPRPPRLPRPRPRPQYLPRP	-0.769
RRIRTRPPRLPRPRPRPDRWPRP	0.0353
RRIRSRPPRLPRPRPRPCIYPRP	-0.847
RRIRTRPPRLPRPRPRPQDHPRP	-0.805
RRIRLRPPRLPRPRPRPVIYPRP	-0.224
RRIRERPPRLPRPRPRPIMCPRP	-0.275

Sequence	shrunken log2 fold change
RRIRGRPPRLPRPRPRPRWNPRP	0.423
RRIRHRPPRLPRPRPRPMLLPRP	0.0408
RRIRYRPPRLPRPRPRPYGFPRP	-0.182
RRIRWRPPRLPRPRPRPEHNPRP	0.147
RRIRPRPPRLPRPRPRPSVPPRP	-0.166
RRIRFRPPRLPRPRPRPYTHPRP	-0.532
RRIRGRPPRLPRPRPRPNRCPRP	0.422
RRIRQRPPRLPRPRPRPPEIPRP	-0.0671
RRIRPRPPRLPRPRPRPMWPPRP	0.213
RRIRIRPPRLPRPRPRPNQVPRP	-0.429
RRIRTRPPRLPRPRPRPDPWPRP	0.0451
RRIRTRPPRLPRPRPRPTPNPRP	0.293
RRIRVRPPRLPRPRPRPMFIPRP	-0.384
RRIRFRPPRLPRPRPRPMFWPRP	-0.0645
RRIRGRPPRLPRPRPRPWVYPRP	-0.0165
RRIRFRPPRLPRPRPRPKDEPRP	-0.13
RRIRKRPPRLPRPRPRPTTMPRP	0.171
RRIRQRPPRLPRPRPRPIKGPRP	-0.0145
RRIRTRPPRLPRPRPRPGDVPRP	0.0978
RRIRMRPPRLPRPRPRPMMQPRP	-0.00112
RRIRVRPPRLPRPRPRPKRDPRP	0.292
RRIRHRPPRLPRPRPRPRQHPRP	0.0285
RRIRDRPPRLPRPRPRPGTHPRP	0.129
RRIRGRPPRLPRPRPRPLEVPRP	0.252
RRIRRRPPRLPRPRPRPAMLPRP	1.02
